Tests used:
[1] = biological target: T1, Nectin-4 (Homo sapiens, UniProt Q96NY8); assay: [^68Ga]AJ647 binding to SCaBER cells with and without EV; details: SCaBER cells (Nectin-4 positive); EV 60 nM for 15 min; P<0.0001
T1 construct: host or cells: HT1376, SCaBER, T24, RT112, UC9, UC14 urothelial carcinoma cells; HT1376 xenografts in NSG mice
T1 sequence (Q96NY8 32-510): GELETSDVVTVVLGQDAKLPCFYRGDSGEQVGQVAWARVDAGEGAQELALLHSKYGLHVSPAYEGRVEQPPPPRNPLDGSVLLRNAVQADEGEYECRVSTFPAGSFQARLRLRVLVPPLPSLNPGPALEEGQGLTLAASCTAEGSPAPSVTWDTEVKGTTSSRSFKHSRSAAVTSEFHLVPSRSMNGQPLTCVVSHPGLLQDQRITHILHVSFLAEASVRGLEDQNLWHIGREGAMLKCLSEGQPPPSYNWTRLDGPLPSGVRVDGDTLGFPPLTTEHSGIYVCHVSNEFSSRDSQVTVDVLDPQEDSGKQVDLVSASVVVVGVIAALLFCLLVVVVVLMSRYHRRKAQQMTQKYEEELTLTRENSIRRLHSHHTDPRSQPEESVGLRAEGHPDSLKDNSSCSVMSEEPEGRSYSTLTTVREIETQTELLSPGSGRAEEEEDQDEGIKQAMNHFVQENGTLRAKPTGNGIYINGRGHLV

[2] = biological target: T1, Nectin-4; assay: In vivo Nectin-4 engagement by EV, HT1376 tumors (ex vivo biodistribution of [^68Ga]AJ647); parameters: species or system mouse; details: NSG mice, single i.v. dose of EV (15 mg/kg in text, 20 mpk in legend/methods) 24 hours before tracer, ex vivo biodistribution 60 min, n=5, P < 0.0001
Protocol: (§1) To validate imaging studies, ex vivo biodistribution studies were conducted in mice with tumors of size 100–200 mm^3. Mice received ~50 μCi (1.85 MBq) of [^68Ga]AJ647 in […] of 5% ethanol in saline intravenously and mice were sacrificed at 5–180 min after [^68Ga]AJ647 injection for pharmacokinetic evaluation (n=4 per timepoint). In all other studies, 60 min time-point was chosen. Selected tissues (Blood, Skin, Muscle, Bone, Salivary glands, Tumor, Lungs, Heart, Liver, Pancreas, Spleen, Kidneys, Bladder, Testicles) were collected, weighed, counted, and their %IA/g values calculated as described previously (PMID: 37793856). For EV pharmacodynamics studies, fewer organs were harvested to accommodate more number of mice.
(§2) Male NSG mice were implanted subcutaneously with HT1376 and SCaBER cells (4 million each) on the right and left rostral end, respectively. On day 25 after cell inoculation (average tumor volume=200±35 mm^3), mice were randomized and treated with a single dose of either saline or 20 mpk EV ADC injected intravenously (volume not exceeding 300 μL) or with 200 μL saline (n=7/group). 24 hours following the EV dose, [^68Ga]AJ647 PET scans (n=2/group) were acquired and ex vivo biodistribution (n=5/group) was performed using the protocols mentioned above.

[3] = biological target: T1, Nectin-4; assay: In vivo Nectin-4 engagement by EV, SCaBER tumors (ex vivo biodistribution of [^68Ga]AJ647); parameters: species or system mouse; details: NSG mice, single i.v. dose of EV (15 mg/kg in text, 20 mpk in legend/methods) 24 hours before tracer, ex vivo biodistribution 60 min, n=5, P < 0.001
Protocol: as §1, §2

[4] = biological target: T1, Nectin-4; assay: EV dose-time Nectin-4 pharmacodynamics by [^68Ga]AJ647 PET, HT1376 tumors; format: in vivo, mouse
Protocol: Mice with tumor volume of ~100–150 mm^3 were injected with ~[…] (7.4 MBq) of [^68Ga]AJ647 in […] of 5% ethanol in saline intravenously and anesthetized under 2.5% isoflurane. PET-CT images were acquired at 60 minutes after radiotracer injection at 5 min/bed in an ARGUS small-animal PET/CT scanner (Sedecal, Madrid, Spain) as described (n=3 unless otherwise noted). PET-MR images were acquired on a simultaneous 7T Bruker PET-MR scanner. Dynamic imaging was conducted to evaluate pharmacokinetics of [^68Ga]AJ647. [^68Ga]AJ647 was injected (with help of catheter) after mice was anesthetized under 2.5% isoflurane on the equipment bed. All PET data were reconstructed using the two-dimensional ordered subsets-expectation maximization algorithm (2D-OSEM) and corrected for radioactive decay and dead time. The SUV values were calculated by finding percent of injected activity (%IA) based on a calibration factor obtained from a known radioactive quantity, then normalizing by mice weight. Amide software was used to derive SUV values by drawing region of interest to closely fit tumors. For change in accessible Nectin-4 levels following EV treatment, ΔSUV was calculated by subtracting baseline (pre-treatment) uptake from post-therapy uptake of [^68Ga]AJ647. Target engagement was quantified by normalizing this change by initial SUV in same subject controls. Image fusion, visualization, and 3D rendering were accomplished using Amira 2020.3.1® (FEI, Hillsboro, OR). The dose-time pharmacodynamics of Nectin-4 following EV treatment was studied at doses 6, 9 and 15 mpk. Experiment involving PET imaging was performed first. Male NSG mice were inoculated with 4 million HT1376 cells at day 0. On day 23 (average tumor volume=150±30 mm^3), mice were randomized to receive either saline, or a single dose of 6, 9 or 15 mpk EV intravenously (n=3 for each dose and n=2 for saline). Mice (n=2) from each dose group and saline were imaged on day 1, 3 and 6 following EV treatment. Once PET imaging results were analyzed, ex vivo distribution experiment was performed with n=16–18 for each dose and n=10 for saline. Treated mice (n=8–9 per dose per time-point) along with saline controls (n=5 per time-point) were sacrificed on day 1 and day 6. Biodistribution studies were performed at 60-minute after [68Ga]AJ647 injection as described above.

Substance: enfortumab vedotin [EV]
- effect of EV on [^68Ga]AJ647 binding [1]: significantly reduced
- reduction in [^68Ga]AJ647 uptake in EV-treated tumors compared to controls [2]: 84%
- reduction in [^68Ga]AJ647 uptake in EV-treated tumors compared to controls [3]: 72%
- Nectin-4 engagement by EV ([^68Ga]AJ647 PET tumor uptake) ([4]; day 1, all EV doses (6, 9, 15 mg/kg single i.v.)): full occupancy
- Nectin-4 engagement by EV ([^68Ga]AJ647 PET tumor uptake) ([4]; day 3, 6 mg/kg): increase in [^68Ga]AJ647 uptake
- Nectin-4 engagement by EV ([^68Ga]AJ647 PET tumor uptake) ([4]; day 3, 9 and 15 mg/kg): sustained target engagement
- Nectin-4 engagement by EV ([^68Ga]AJ647 PET tumor uptake) ([4]; day 6, 6 mg/kg): significant increase in [^68Ga]AJ647 uptake
- Nectin-4 engagement by EV ([^68Ga]AJ647 PET tumor uptake) ([4]; day 6, 9 mg/kg): partial engagement
- Nectin-4 engagement by EV ([^68Ga]AJ647 PET tumor uptake) ([4]; day 6, 15 mg/kg): persistent high-level engagement

— publication doi:10.1101/2024.12.25.630315 (bioRxiv, 2024)
